# Article PMC10128069, “A Fijivirus Major Viroplasm Protein Shows RNA-Stimulated ATPase Activity by Adopting Pentameric and Hexameric Assemblies of Dimers” (mBio, 2023)
# How the values were obtained:
# [1] = biological target: P9-1 (Mal de Rio Cuarto virus (MRCV)) (UniProt D9U542); test: competition EMSA; conditions: 10 mM Tris-HCl, 50 mM KCl, 0.5 mM EDTA, 10% glycerol, 1 mM DTT, pH 7.5; 30 min at room temperature; 6.5% native PAGE at 4 C
# SAXS = biological target: the molecule itself; test: SAXS
# SEC-MALS = biological target: the molecule itself; test: SEC-MALS
# cryo-EM structure = biological target: the molecule itself; test: cryo-EM structure
# crystal structure = biological target: the molecule itself; test: crystal structure
# P9-1 = P9-1 (Mal de Rio Cuarto virus (MRCV), UniProt D9U542 1-337); test: EMSA; 5 uM probe; concentration-dependent, 1, 3, 6 uM protein; 10 mM Tris-HCl, 50 mM KCl, 0.5 mM EDTA, 10% glycerol, 1 mM DTT, pH 7.5; 30 min at room temperature; 6.5% native PAGE at 4 C; conditions: protein: recombinant; tags: N-terminal 52-residue tag (6xHis/Xpress/EK); label: 5'-HEX; single strand
molecule,measurement,setting,value
"poly(A), average 250 nt",binding signal (fold decrease of ssDNA complex),[1],10
"P9-1 major viroplasm protein of mal de Río Cuarto virus (MRCV), full-length, expressed in E. coli from pRSET (natural protein, source: E. coli BL21, purified (IMAC on Ni-NTA, SEC on Superdex 200); copies: 10 or 12) MADLERRTFGSYKIEEITIKNDQQQKTTNQQQISNNEQRISTKKIPILDDGIFDLINYLLNGTHFDKTHYCGFDYSHLPTLERDFNTASNYVSENYSIIVEEIDLNKYERSESISLKSPDFTVVLEYFKKHVEGQTEQEENKTESTSSELPAKIVRELPLLPIMCRESEDSISEDILEGEGAVIQVLKMFMKGFLVHLGENPNSYDRQLTIEKYRPLLISIIGYEFTVGTRATHTKINHIYYQLATFDNYPFDLLRFQLQSLIDTPNVIKERIEKDGLFKVITTTNARGQYQSVLLRGINGSESYLNLKRYRKFKVRVVGNVDNVIKNDFSSLKLDV",stoichiometry N,SAXS,10
same,stoichiometry N,SEC-MALS,~10.4 protomers
same,stoichiometry N,cryo-EM structure,12
"P9-1ΔC-arm (residues 1 to 313 of MRCV P9-1, lacking the 24 C-terminal residues) (domain or fragment, source: E. coli BL21, purified (IMAC on Ni-NTA, SEC on Superdex 200); not shown: His6, N-terminal, kept) MADLERRTFGSYKIEEITIKNDQQQKTTNQQQISNNEQRISTKKIPILDDGIFDLINYLLNGTHFDKTHYCGFDYSHLPTLERDFNTASNYVSENYSIIVEEIDLNKYERSESISLKSPDFTVVLEYFKKHVEGQTEQEENKTESTSSELPAKIVRELPLLPIMCRESEDSISEDILEGEGAVIQVLKMFMKGFLVHLGENPNSYDRQLTIEKYRPLLISIIGYEFTVGTRATHTKINHIYYQLATFDNYPFDLLRFQLQSLIDTPNVIKERIEKDGLFKVITTTNARGQYQSVLLRGINGSESYLNLKRYRK",stoichiometry N,SEC-MALS,~2.3 protomers
same,stoichiometry N,crystal structure,2
GACCTCGCTCTCTGTTTCTCAT (ssDNA) [22-nt HEX-ssDNA probe],binding result,P9-1,binds
